Experimental data: the Immune Epitope Database (IEDB)
pIC50: −log10 of the molar value.

Assays:
HLA-A*02:03 = experiment: IEDB peptide-MHC binding, purified MHC/competitive/radioactivity; ≥ and ≤ were set here for values at or beyond the usual limits of such assays
HLA-A*02:01 [1] = experiment: as above
HLA-A*02:06 = experiment: as above
HLA-A*02:02 = experiment: as above
HLA-A*68:02 = experiment: IEDB peptide-MHC binding, cellular MHC/competitive/fluorescence; ≥ and ≤ were set here for values at or beyond the usual limits of such assays
HLA-A*02:01 [2] = experiment: as above; details: source organism: Vaccinia virus WR
[3] = source organism: Hepacivirus hominis
[4] = source organism: Vaccinia virus WR
[5] = source organism: Mammarenavirus choriomeningitidis
[6] = source organism: Mammarenavirus whitewaterense

| Sequence | pIC50 (HLA-A*02:03; [4]) | pIC50 (HLA-A*02:01 [1]; [4]) | pIC50 (HLA-A*02:06; [4]) | pIC50 (HLA-A*02:02; [4]) | pIC50 (HLA-A*68:02; [4]) | also measured |
| --- | --- | --- | --- | --- | --- | --- |
| FMLCLLLLS |  |  |  |  |  | pIC50 (HLA-A*02:03; [3]): 5.84; pIC50 (HLA-A*02:01 [1]; [3]): 5.56; pIC50 (HLA-A*02:06; [3]): 5.68; pIC50 (HLA-A*02:02; [3]): 6.00; pIC50 (HLA-A*68:02; [3]): ≤ 4.15 |
| KIILFQNNDI | 5.70 | 5.44 | 5.66 | 5.79 | 4.76 |  |
| LSAEELMSL |  |  |  |  |  | pIC50 (HLA-A*02:03; [5]): 6.15; pIC50 (HLA-A*02:01 [1]; [5]): 5.66; pIC50 (HLA-A*02:06; [5]): 7.18; pIC50 (HLA-A*02:02; [5]): 7.19; pIC50 (HLA-A*68:02; [5]): 5.23 |
| ILDNLRCHSA | 7.16 | 7.20 | 6.53 | 6.01 | 4.89 |  |
| TILATLNTL | 7.47 | 6.76 | 7.59 | 6.62 | 4.73 |  |
| LIYRQLTSNV | 8.12 | 6.18 | 6.77 | 7.10 | 5.19 |  |
| KLWAQCVQL |  |  |  |  |  | pIC50 (HLA-A*02:03; source organism: SARS-CoV1): 6.71; pIC50 (HLA-A*02:01 [1]; source organism: SARS-CoV1): 8.33; pIC50 (HLA-A*02:06; source organism: SARS-CoV1): 8.02; pIC50 (HLA-A*02:02; source organism: SARS-CoV1): 7.89; pIC50 (HLA-A*68:02; source organism: SARS-CoV1): 4.64 |
| FLLRGPFEAS |  |  |  |  |  | pIC50 (HLA-A*02:03; [6]): 7.08; pIC50 (HLA-A*02:01 [1]; [6]): 6.96; pIC50 (HLA-A*02:06; [6]): 7.15; pIC50 (HLA-A*02:02; [6]): 7.57; pIC50 (HLA-A*68:02; [6]): 4.41 |
| ITLILSNKLL | 5.33 | 5.66 | 5.41 | 5.96 | 5.19 |  |
| LLMALPHQA |  |  |  |  |  | pIC50 (HLA-A*02:03; [3]): 8.00; pIC50 (HLA-A*02:01 [1]; [3]): 7.14; pIC50 (HLA-A*02:06; [3]): 5.81; pIC50 (HLA-A*02:02; [3]): 7.28; pIC50 (HLA-A*68:02; [3]): 5.01 |
| GMQFDKVYL | 6.56 | 7.14 | 5.72 | 7.89 | 4.76 |  |
| GIADIRDKYM | 7.32 | 5.96 | 5.75 | 9.16 | 5.23 |  |
| YLYGIGSAVV |  |  |  |  |  | pIC50 (HLA-A*02:03; [3]): 8.46; pIC50 (HLA-A*02:01 [1]; [3]): 7.41; pIC50 (HLA-A*02:06; [3]): 6.55; pIC50 (HLA-A*02:02; [3]): 7.92; pIC50 (HLA-A*68:02; [3]): 5.29 |
| GLLLLCVGV |  |  |  |  |  | pIC50 (HLA-A*02:03; [3]): 6.55; pIC50 (HLA-A*02:01 [1]; [3]): 7.37; pIC50 (HLA-A*02:06; [3]): 6.05; pIC50 (HLA-A*02:02; [3]): 6.32; pIC50 (HLA-A*68:02; [3]): 4.31 |
| GLLDSIKMI | 7.85 | 7.82 | 7.37 | 7.10 | ≤ 4.15 |  |
| YIEDELRRA | 6.59 |  | 5.91 | 5.75 | ≤ 4.15 | pIC50 (HLA-A*02:01 [2]): 5.27 |
| VTYNIKPVIV | 6.94 | 5.52 | 6.45 | 5.31 | 5.08 |  |

| Sequence | pIC50 (HLA-A*02:03; [4]) | pIC50 (HLA-A*02:01 [1]; [4]) | pIC50 (HLA-A*02:06; [4]) | pIC50 (HLA-A*02:02; [4]) | pIC50 (HLA-A*68:02; [4]) | also measured |
| --- | --- | --- | --- | --- | --- | --- |
| LLSVGVGIYL |  |  |  |  |  | pIC50 (HLA-A*02:03; [3]): 6.25; pIC50 (HLA-A*02:01 [1]; [3]): 7.74; pIC50 (HLA-A*02:06; [3]): 6.24; pIC50 (HLA-A*02:02; [3]): 7.92; pIC50 (HLA-A*68:02; [3]): 4.70 |
| TLVPVLEKKV | 7.00 | 6.02 | 6.30 | 6.95 | 4.49 |  |
| IALCKVTVPT | 5.65 | 5.67 | 6.19 | 5.71 | ≤ 4.15 |  |
| KLLIVLTCI |  |  |  |  |  | pIC50 (HLA-A*02:03; source organism: SARS-CoV1): 5.71; pIC50 (HLA-A*02:01 [1]; source organism: SARS-CoV1): 6.64; pIC50 (HLA-A*02:06; source organism: SARS-CoV1): 6.35; pIC50 (HLA-A*02:02; source organism: SARS-CoV1): 6.59; pIC50 (HLA-A*68:02; source organism: SARS-CoV1): 5.26 |
| NIKISLNEI | 7.51 |  | 5.82 | 5.78 | 4.70 | pIC50 (HLA-A*02:01 [2]): 4.68 |
| LMLKATLLCV |  |  |  |  |  | pIC50 (HLA-A*02:03; source organism: SARS-CoV1): 7.68; pIC50 (HLA-A*02:01 [1]; source organism: SARS-CoV1): 7.72; pIC50 (HLA-A*02:06; source organism: SARS-CoV1): 7.20; pIC50 (HLA-A*02:02; source organism: SARS-CoV1): 8.47; pIC50 (HLA-A*68:02; source organism: SARS-CoV1): 5.05 |
| FLARKGIDT | 6.50 | 5.85 | 5.52 | 5.99 | ≤ 4.15 |  |
| LLKCVSDSWL | 6.93 | 5.81 | 5.33 | 7.12 | 5.01 |  |
| VMWKCLIRL |  |  |  |  |  | pIC50 (HLA-A*02:03; [3]): 6.08; pIC50 (HLA-A*02:01 [1]; [3]): 7.28; pIC50 (HLA-A*02:06; [3]): 6.02; pIC50 (HLA-A*02:02; [3]): 6.42; pIC50 (HLA-A*68:02; [3]): 5.12 |
| KLPTWLGAAI | 6.91 | 6.65 | 6.53 | 6.99 | 5.20 |  |
| SLVKESMASL | 8.11 | 5.63 | 5.84 | 6.00 | 5.10 |  |
| GLDERFVEEL | 5.92 | 6.48 | 5.60 | 7.03 | 5.21 |  |
| LLNMRDLIV | 8.92 | 7.38 | 6.65 | 6.18 | 4.63 |  |
| SALMTLDDL | 6.15 | 5.96 | 7.00 | 6.39 | 5.16 |  |
| KIIAVFDSKL | 7.24 | 6.01 | 7.23 | 7.60 | 4.50 |  |
| FLTNKLLLFA |  |  |  |  |  | pIC50 (HLA-A*02:03; source organism: SARS-CoV1): 8.85; pIC50 (HLA-A*02:01 [1]; source organism: SARS-CoV1): 8.21; pIC50 (HLA-A*02:06; source organism: SARS-CoV1): 8.12; pIC50 (HLA-A*02:02; source organism: SARS-CoV1): 9.38; pIC50 (HLA-A*68:02; source organism: SARS-CoV1): 4.93 |
| LQWDDNIPEL | 6.15 |  | 7.47 | 6.74 | 4.37 | pIC50 (HLA-A*02:01 [2]): 5.02 |
